Results on six molecules are retold here after patent US5786191A, “Cloning and expression of complementary DNAs for multiple members of the human cytochrome P450 2C subfamily” (priority 1994, dated 1998).

Format in all cases: biochemical
The nature of data set [1]: Mephenytoin 4'-hydroxylase assay, recombinant human CYP2C yeast microsomes, S-enantiomer. The note with it: for R/S Ratio of mephenytoin 4'-hydroxylase activity: recombinant yeast microsomes (Table III); for Mephenytoin 4'-Hydroxylase Activity, S: yeast microsomes + P450 reductase, phospholipid, cytochrome b5 2:1, 37° C., 30 min, liver microsomes unfortified, phosphate buffer.
Method: (§1) Purified or recombinant yeast microsomes (10-50 pmol) were preincubated with dilauroylphosphatidylcholine (15 μg per 50 pmol P450), P450 reductase (500 U per 50 mol P450), and human cytochrome b5 (2:1 molar ratio when added). The reconstituted mixture was preincubated for 5 min at 37° C., and then placed on ice. […] The mixture was then incubated at 37° with shaking for 3 min, and the reaction started with the addition of 2 mM NADPH and terminated after 30 min with an equal volume of methanol. […] Reaction volumes were generally 0.25 ml except when the volume of recombinant purified cytochrome or yeast microsomes was greater than 50 μl. In these cases, the volume was increased to 0.5 ml to limit the volume of glycerol from the purified preparation to <4% of the final volume.
(§2) At the end of the incubation period, the reactions were terminated with an equal volume of methanol. The incubation mixture was centrifuged at 10,000 g for 10 min and an aliquot assayed directly using HPLC without extraction. Samples with particularly low activity were concentrated by lyophilization and redissolved in a small volume of methanol:water (1:1) before assay. The HPLC system consisted of a reverse phase C18 (10 μm) Versapak, 300 mm×4.1 mm column (Altech Associates, Deerfield, Ill.) using an isocratic solvent consisting of methanol:water (45:55) with a flow rate was kept of 1 ml/min for 25 min.

Data set [2] in a line: Mephenytoin 4'-hydroxylase assay, purified recombinant P450s in reconstituted system, S-enantiomer. The note with it: for R/S Ratio of mephenytoin 4'-hydroxylase activity: purified P450s (Table IV); for Mephenytoin 4'-Hydroxylase Activity, S: purified P450s, triplicate, means ± SE, blank not subtracted.
Method: as §1, §2
A short description of data set [3]: Mephenytoin 4'-hydroxylase assay, purified recombinant P450s in reconstituted system, R-enantiomer. The note with it: triplicate, means ± SE, blank not subtracted.
Method: as §1, §2
The nature of data set [4]: Mephenytoin 4'-hydroxylase assay, recombinant human CYP2C yeast microsomes, R-enantiomer. The note with it: yeast microsomes + P450 reductase, phospholipid, cytochrome b5 2:1; 0.4 mM substrate; 37° C., 30 min; liver microsomes unfortified, phosphate buffer; means ± SE. (In general: Liver microsomes are a subcellular fraction often used to study metabolism.)
Method: as §1, §2
The nature of data set [5]: Tolbutamide hydroxylase assay, recombinant human CYP2C yeast microsomes. The note with it: means ± SE; for Tolbutamide Hydroxylase Activity per mg protein: 1 mg yeast microsomal protein + P450 reductase, or 0.2 mg liver microsomal protein without reductase.
Method: Yeast microsomes (1 mg protein) were preincubated with 300 pmol hamster P450 reductase in 0.2 ml of the incubation buffer (below) for 3 min at 37° C. The reaction was then placed on ice and incubated in 0.2 ml of 50 mM HEPES buffer (pH 7.4) containing 1.5 mM MgCl2, 0.1 mM EDTA in a final volume of 1 ml and 1 mM sodium tolbutamide. The reaction was initiated with 0.5 mM NADPH. Human liver microsomes (0.22 mg protein) were incubated without reductase. Incubations with reconstituted recombinant P450s contained 50 pmol purified P450 enzyme, 150 pmol P450 reductase, and 15 μg dilauroylphosphatidylcholine, and were performed in 100 mM potassium phosphate buffer (pH 7.4). Reactions were terminated after 60 min at 37° C. by the addition of 50 μl of 4N HCl, followed by extraction with 3 ml of water-saturated ethyl acetate. […] The column eluate was monitored at 230 nm and rates of product formation were determined from standard curves prepared by adding varying amounts of 4-hydroxytolbutamide to incubations conducted without NADPH. […] Samples were analyzed in triplicate.
Data set [6] can be described thus: Tolbutamide hydroxylase assay, purified reconstituted P450s. The note with it: blank (22 ± 5) subtracted, means ± SE.
Method: Tolbutamide hydroxylase activity was measured according to Knodell et al., J. Pharmacol. Exper. Ther. 241:1112-1119 (1987), with several modifications. Yeast microsomes (1 mg protein) were preincubated with 300 pmol hamster P450 reductase in 0.2 ml of the incubation buffer (below) for 3 min at 37° C. The reaction was then placed on ice and incubated in 0.2 ml of 50 mM HEPES buffer (pH 7.4) containing 1.5 mM MgCl2, 0.1 mM EDTA in a final volume of 1 ml and 1 mM sodium tolbutamide. The reaction was initiated with 0.5 mM NADPH. Human liver microsomes (0.22 mg protein) were incubated without reductase. Incubations with reconstituted recombinant P450s contained 50 pmol purified P450 enzyme, 150 pmol P450 reductase, and 15 μg dilauroylphosphatidylcholine, and were performed in 100 mM potassium phosphate buffer (pH 7.4). Reactions were terminated after 60 min at 37° C. by the addition of 50 μl of 4N HCl, followed by extraction with 3 ml of water-saturated ethyl acetate. The ethyl acetate extracts were dried under nitrogen at 40° C., the residue resolubilized in 200 μl methanol, and 4-hydroxytolbutamide then assayed using HPLC by injecting 50 μl of the solubilized extract onto a μBONDAPAK C18 column (4.6×300 mm) using 0.05% phosphoric acid, pH 2.6: acetonitrile (6:4, v/v) as the mobile phase with a flow rate of 1 ml/min. The column eluate was monitored at 230 nm and rates of product formation were determined from standard curves prepared by adding varying amounts of 4-hydroxytolbutamide to incubations conducted without NADPH. […] Samples were analyzed in triplicate.

B1: 2C19: human cytochrome P450 2C19 polypeptide, clone 11a, SEQ ID NO:1, expressed recombinantly in yeast (protein)
chain: MDPFVVLVLCLSCLLLLSIWRQSSGRGKLPPGPTPLPVIGNILQIDIKDVSKSLTNLSKIYGPVFTLYFGLERMVVLHGYEVVKEALIDLGEEFSGRGHFPLAERANRGFGIVFSNGKRWKEIRRFSLMTLRNFGMGKRSIEDRVQEEARCLVEELRKTKASPCDPTFILGCAPCNVICSIIFQKRFDYKDQQFLNLMEKLNENIRIVSTPWIQICNNFPTIIDYFPGTHNKLLKNLAFMESDILEKVKEHQESMDINNPRDFIDCFLIKMEKEKQNQQSEFTIENLVITAADLLGAGTETTSTTLRYALLLLLKHPEVTAKVQEEIERVIGRNRSPCMQDRGHMPYTDAVVHEVQRYIDLIPTSLPHAVTCDVKFRNYLIPKGTTILTSLTSVLHDNKEFPNPEMFDPRHFLDEGGNFKKSNYFMPFSAGKRICVGEGLARMELFLFLTFILQNFNLKSLIDPKDLDTTPVVNGFASVPPFYQLCFIPV
In the case of B1, the “R/S Ratio of mephenytoin 4'-hydroxylase activity” value (“R/S Ratio” below) in data set [1] and in data set [2] was 0.03 in each case. Besides, the “Rate of S-hydroxylation relative to R-hydroxylation of mephenytoin” value in data set [1] (stereospecificity, yeast microsomes) is “at least 30 fold”. The “Mephenytoin 4'-Hydroxylase Activity, S” value is ~ 5 nmol/min/nmol P450 in data set [1] (0.4 mM substrate, means ± SE); 4.6 ± 0.3 nmol/min/nmol P450 in data set [1] (0.4 mM substrate, means ± SE, listed as 2C19 (11a)); 6.17 ± 0.24 nmol/min/nmol P450 in data set [2] (reconstituted system). Also, in data set [2] (fold higher than human liver microsomes), the “S-mephenytoin 4'-hydroxylation turnover relative to human liver microsomes” value is “at least 10 times”. Moreover, in data set [2] (purified, reconstituted system), the “S-mephenytoin 4'-hydroxylation turnover relative to recombinant 2C9, 2C18 or 2C8” value is recorded as 50-100 times. Moreover, in data set [2] (vs literature value of Srivastava et al.), the “S-mephenytoin 4'-hydroxylase turnover relative to P450MP purified from human liver” value is ~ 30 times. Further, the “Mephenytoin 4'-Hydroxylase Activity, R” value in data set [3] was determined as 0.19 ± 0.04 nmol/min/nmol P450; in data set [4] it was 0.014 ± 0.02 nmol/min/nmol P450. In data set [5], the “Tolbutamide Hydroxylase Activity per mg protein” value is 18.4 ± 2.4 nmol/min/mg protein.

B2: 2C9: recombinant human P450 2C9, allele not specified in the sentence (protein, UniProt P11712 1-490, looked up)
Cytochrome P450 2C9: MDSLVVLVLCLSCLLLLSLWRQSSGRGKLPPGPTPLPVIGNILQIGIKDISKSLTNLSKVYGPVFTLYFGLKPIVVLHGYEAVKEALIDLGEEFSGRGIFPLAERANRGFGIVFSNGKKWKEIRRFSLMTLRNFGMGKRSIEDRVQEEARCLVEELRKTKASPCDPTFILGCAPCNVICSIIFHKRFDYKDQQFLNLMEKLNENIKILSSPWIQICNNFSPIIDYFPGTHNKLLKNVAFMKSYILEKVKEHQESMDMNNPQDFIDCFLMKMEKEKHNQPSEFTIESLENTAVDLFGAGTETTSTTLRYALLLLLKHPEVTAKVQEEIERVIGRNRSPCMQDRSHMPYTDAVVHEVQRYIDLLPTSLPHAVTCDIKFRNYLIPKGTTILISLTSVLHDNKEFPNPEMFDPHHFLDEGGNFKKSKYFMPFSAGKRICVGEALAGMELFLFLTSILQNFNLKSLVDPKNLDTTPVVNGFASVPPFYQLCFIPV
Regarding B2, the “Mephenytoin 4'-Hydroxylase Activity, S” value in data set [1] (0.4 mM substrate, means ± SE) is 0.02 nmol/min/nmol P450. Also, the “Turnover number of recombinant 2C9 relative to 2C9 purified from human liver” value in data set [2] (S-mephenytoin 4'-hydroxylation) is listed as ~ 100 times.

B3: 2C9 Purified from Human Liver: cytochrome P450 2C9 purified from human liver microsomes (protein, UniProt P11712 1-490, looked up)
Cytochrome P450 2C9: B2 Cytochrome P450 2C9
Regarding B3, the “R/S Ratio” value in data set [2] is given as 1.6. Also, the “Mephenytoin 4'-Hydroxylase Activity, S” value in data set [2] (reconstituted system) was determined as 0.033 ± 0.001 nmol/min/nmol P450. In addition, the “Mephenytoin 4'-Hydroxylase Activity, R” value in data set [3] was found to be 0.051 ± 0.007 nmol/min/nmol P450. In addition, the “Tolbutamide Hydroxylase Activity” value in data set [6] worked out at 109 ± 16 pmol/min/nmol P450.

B4: 2C18-Thr^385 (29c): recombinant 2C18 allelic variant 29c (Thr 385) in yeast microsomes; Table III does not state residue 2 (protein, UniProt P33260 26-490, looked up)
Cytochrome P450 2C18: RGRLPSGPTPLPIIGNILQLDVKDMSKSLTNFSKVYGPVFTVYFGLKPIVVLHGYEAVKEALIDHGEEFSGRGSFPVAEKVNKGLGILFSNGKRWKEIRRFCLMTLRNFGMGKRSIEDRVQEEARCLVEELRKTNASPCDPTFILGCAPCNVICSVIFHDRFDYKDQRFLNLMEKFNENLRILSSPWIQVCNNFPALIDYLPGSHNKIAENFAYIKSYVLERIKEHQESLDMNSARDFIDCFLIKMEQEKHNQQSEFTVESLIATVTDMFGAGTETTSTTLRYGLLLLLKYPEVTAKVQEEIECVVGRNRSPCMQDRSHMPYTDAVVHEIQRYIDLLPTNLPHAVTCDVKFKNYLIPKGTTIITSLTSVLHNDKEFPNPEMFDPGHFLDKSGNFKKSDYFMPFSAGKRMCMGEGLARMELFLFLTTILQNFNLKSQVDPKDIDITPIANAFGRVPPLYQLCFIPV
Regarding B4, in data set [1], the “R/S Ratio” value is recorded as 1.3. For the same molecule, in data set [1] (0.4 mM substrate, means ± SE), the “Mephenytoin 4'-Hydroxylase Activity, S” value worked out at 0.042 ± 0.004 nmol/min/nmol P450. The “Mephenytoin 4'-Hydroxylase Activity, S, no b5” value in data set [1] (yeast microsomes without cytochrome b5, 0.4 mM substrate, means ± SE) is listed as 0.034 ± 0.008 nmol/min/nmol P450. For the same molecule, the “Mephenytoin 4'-Hydroxylase Activity, R” value in data set [4] was determined as 0.054 ± 0.003 nmol/min/nmol P450.

B5: 2C18-Asp^2 Thr^385 (29c-1a): recombinant human P450 2C18 allelic variant 29c with correct Asp at position 2, Thr at 385 (protein, UniProt P33260 26-490, looked up)
Cytochrome P450 2C18: B4 Cytochrome P450 2C18
B5: the “R/S Ratio” value in data set [2] is 1.3. The “Mephenytoin 4'-Hydroxylase Activity, S” value in data set [2] (reconstituted system) amounted to 0.116 ± 0.010 nmol/min/nmol P450. In addition, the “Mephenytoin 4'-Hydroxylase Activity, R” value in data set [3] was 0.147 ± 0.025 nmol/min/nmol P450. Moreover, the “Tolbutamide Hydroxylase Activity per mg protein” value in data set [5] came to 9.3 ± 0.7 nmol/min/mg protein. Also, the “Tolbutamide Hydroxylase Activity per nmol P450” value in data set [5] (adjusted for P450 content) stood at 0.19 ± 0.02 nmol/min/nmol P450.

B6: 2C8 Purified from Human Liver: cytochrome P450 2C8 purified from human liver microsomes (protein, UniProt P10632 1-490, looked up)
Cytochrome P450 2C8: MEPFVVLVLCLSFMLLFSLWRQSCRRRKLPPGPTPLPIIGNMLQIDVKDICKSFTNFSKVYGPVFTVYFGMNPIVVFHGYEAVKEALIDNGEEFSGRGNSPISQRITKGLGIISSNGKRWKEIRRFSLTTLRNFGMGKRSIEDRVQEEAHCLVEELRKTKASPCDPTFILGCAPCNVICSVVFQKRFDYKDQNFLTLMKRFNENFRILNSPWIQVCNNFPLLIDCFPGTHNKVLKNVALTRSYIREKVKEHQASLDVNNPRDFIDCFLIKMEQEKDNQKSEFNIENLVGTVADLFVAGTETTSTTLRYGLLLLLKHPEVTAKVQEEIDHVIGRHRSPCMQDRSHMPYTDAVVHEIQRYSDLVPTGVPHAVTTDTKFRNYLIPKGTTIMALLTSVLHDDKEFPNPNIFDPGHFLDKNGNFKKSDYFMPFSAGKRICAGEGLARMELFLFLTTILQNFNLKSVDDLKNLNTTAVTKGIVSLPPSYQICFIPV
Regarding B6, the “R/S Ratio” value in data set [2] was 1.6. Besides, the “Mephenytoin 4'-Hydroxylase Activity, S” value in data set [2] (reconstituted system) amounted to 0.032 ± 0.003 nmol/min/nmol P450. For the same molecule, the “Mephenytoin 4'-Hydroxylase Activity, R” value in data set [3] was 0.051 ± 0.030 nmol/min/nmol P450.
